The series addresses UL9 protein (origin-binding protein/helicase) (UniProt P10193 P10193:1-851). Nature of the series: EMSA; binding to Box I with attached ssDNA tails verified by gel mobility shift; substrate number not specified. To be noted: tags: none stated; baculovirus-infected Sf21 nuclear extract, 83 kDa; chain copies: 2 (homodimer on Box I, stated); label: 5'-32P on 44-mer; forked duplex with 18-nt 3' ssDNA tail and 10-nt 5' ssDNA tail.

Results on one molecule are retold here after patent US6096502, “Substrate for detecting UL9 helicase activity” (Lee; Sam S.-K.).

Sequence of UL9 protein (origin-binding protein/helicase) (P10193 whole entry, one chain of several): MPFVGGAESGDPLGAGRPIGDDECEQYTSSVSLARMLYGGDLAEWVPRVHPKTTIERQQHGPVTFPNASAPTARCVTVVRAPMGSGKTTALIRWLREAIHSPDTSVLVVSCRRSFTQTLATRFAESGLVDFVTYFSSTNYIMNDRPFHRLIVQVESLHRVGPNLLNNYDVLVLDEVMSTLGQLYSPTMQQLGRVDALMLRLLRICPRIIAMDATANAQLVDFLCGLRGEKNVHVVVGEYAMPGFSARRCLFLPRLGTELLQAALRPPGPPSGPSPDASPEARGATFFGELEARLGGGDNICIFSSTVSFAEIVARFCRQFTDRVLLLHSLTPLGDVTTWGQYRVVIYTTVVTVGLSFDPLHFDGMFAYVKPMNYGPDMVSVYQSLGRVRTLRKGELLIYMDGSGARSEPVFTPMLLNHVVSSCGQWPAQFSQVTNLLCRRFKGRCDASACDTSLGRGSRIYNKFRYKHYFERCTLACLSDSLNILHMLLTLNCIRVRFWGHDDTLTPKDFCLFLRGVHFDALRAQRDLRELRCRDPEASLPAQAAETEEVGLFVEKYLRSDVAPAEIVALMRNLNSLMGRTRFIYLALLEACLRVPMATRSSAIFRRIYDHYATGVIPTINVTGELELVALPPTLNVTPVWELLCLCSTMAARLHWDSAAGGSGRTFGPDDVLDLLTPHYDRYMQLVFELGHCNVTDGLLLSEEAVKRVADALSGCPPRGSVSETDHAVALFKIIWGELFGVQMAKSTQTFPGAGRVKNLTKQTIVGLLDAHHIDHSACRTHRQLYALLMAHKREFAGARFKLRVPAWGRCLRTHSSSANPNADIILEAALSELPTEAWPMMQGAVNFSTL

B1: Substrate I (18-nt 3' tail on first strand, 5' tail on second strand) (mixed)
DNA 1: CGCGAAGCGTTCGCACTTCGTCCCGCCTTCCTGCGCCTTCCTGT
DNA 2: CATGCTCGCAGCGGGACGAAGTGCGAACGCTTCGCG
As for B1, the binding result is listed as “binds”.
